The values that follow come from paper PMC11005422.

Experiment [1] deals with shClpP1 (first 29 residues removed, S113A) (Streptomyces hawaiiensis NRRL 15010). As to the kind of experiment: cryo-EM structure; apo shClpP1P2, C7 symmetry imposed, 2.34 Å (free shClpP1P2 particles of the ClpC1 sample; a second reconstruction at 2.88 Å from the shClpP1P2 sample); SEC buffer 20 mM HEPES, 150 mM KCl, 5% glycerol, pH 7.5.
Experiment [2] addresses ClpC1 (NTD residues 1-156 removed, E284A/E622A/F440A) (Streptomyces hawaiiensis NRRL 15010). The experiment can be described thus: cryo-EM structure; ClpC1 added to the pre-formed shClpP1P2 complex with fluorescein-labeled casein and ATP; conformations A (2.94 Å) and B (3.0 Å), C1.
Experiment [3] concerns the target shClpP1 alone (sample of Fig. S1A) (Streptomyces hawaiiensis NRRL 15010). As to the kind of experiment: not stated; Fig. S1A (not shown): purified proteins in solution; a shClpP1 sample was also put on cryo-EM grids.
Experiment [4] addresses shClpP2 (first 49 residues removed, S131A) (Streptomyces hawaiiensis NRRL 15010). The experiment can be described thus: cryo-EM structure; apo shClpP1P2, C7 symmetry imposed, 2.34 Å (free shClpP1P2 particles of the ClpC1 sample; a second reconstruction at 2.88 Å from the shClpP1P2 sample); SEC buffer 20 mM HEPES, 150 mM KCl, 5% glycerol, pH 7.5.

“shClpP1 (first 29 residues removed, S113A) (enzyme)” displayed a stoichiometry N in experiment [1] of 7. “ClpC1 (NTD residues 1-156 removed, E284A/E622A/F440A) (enzyme)” returned a stoichiometry N in experiment [2] of 6. Turning to “shClpP1 alone (sample of Fig. S1A) (enzyme)”, the stoichiometry N in experiment [3] turned out to be 7. Turning to “shClpP2 (first 49 residues removed, S131A) (enzyme)”, in experiment [4], the stoichiometry N was determined as 7.
